This is an account of results in patent publication US20090297689A1.

The target of test [1] is casein hydrolysate. The experiment in a line: cell-based or functional assay.
Test [2] deals with sodium caseinate. In words: cell-based or functional assay.

Consider “peptidyl arginine deiminase (PAD) of Fusarium graminearum CBS166.57, over-expressed in Aspergillus niger and purified (enzyme)”, for which, in test [1], the arginine (amino acid analysis, 5 microliter PAD, 3 hours) was found to be 97.2%; the arginine (amino acid analysis, 50 microliter PAD, 3 hours) was 86.1%; the arginine (amino acid analysis, 500 microliter PAD, 3 hours) worked out at 60.4%; the citrulline (amino acid analysis, 5 microliter PAD, 3 hours) was found to be 0.9%. In test [1], this substance returned a citrulline (amino acid analysis, 50 microliter PAD, 3 hours) of 5%; a citrulline (amino acid analysis, 500 microliter PAD, 3 hours) of 15.1%; an ornithine (amino acid analysis, 5 microliter PAD, 3 hours) of 1.9%; an ornithine (amino acid analysis, 50 microliter PAD, 3 hours) of 8.9%. The ornithine (amino acid analysis, 500 microliter PAD, 3 hours) in test [1] came to 24.5%. In test [2], this substance returned an arginine (amino acid analysis, 5 microliter PAD, 3 hours) of 97.8%; an arginine (amino acid analysis, 50 microliter PAD, 3 hours) of 86.5%; an arginine (amino acid analysis, 500 microliter PAD, 3 hours) of 70.2%; a citrulline (amino acid analysis, 5 microliter PAD, 3 hours) of 0.8%. In test [2], this substance had a citrulline (amino acid analysis, 50 microliter PAD, 3 hours) of 4.7%; a citrulline (amino acid analysis, 500 microliter PAD, 3 hours) of 10.5%; an ornithine (amino acid analysis, 5 microliter PAD, 3 hours) of 1.3%; an ornithine (amino acid analysis, 50 microliter PAD, 3 hours) of 8.8%. The substance further showed an ornithine (amino acid analysis, 500 microliter PAD, 3 hours) in test [2] of 19.3%.
